Results on one molecule are retold here after patent publication US20240409638A1 (AVACTA LIFE SCIENCES, published 2024).

The target of assay [1] is T1, human PD-L1-Fc (R&D Systems) (human, UniProt Q9NZQ7 19-239).
T1 construct: Bought reagent; also called huPD-L1-Fc; huPD-L1; not shown: Fc part of the bought fusion
Nature of the assay: SPR (Biacore) kinetics: human PD-L1-Fc immobilised on a CM5 chip, AFFIMER as analyte.

Assay [2] concerns the target T2, murine serum albumin (MSA) (murine, UniProt P07724 25-608).
T2 construct: Bought reagent
The experiment in a line: SPR (Biacore): immobilized ligand MSA (Sigma # A3559), AFFIMER as analyte, pH 7.0 by the legend. (In general: Surface plasmon resonance follows binding to a sensor surface in real time, without labels.)

For assay [3], the target named is T1, human PD-L1-Fc (R&D Systems). Nature of the assay: PD-L1/PD-1 competition ELISA (binding inhibition %): human PD-1-Fc coated, AFFIMER preincubated with huPD-L1-Fc at its EC80, bound PD-L1 detected; blocked ligand: human PD-1-Fc. The table column is headed 'EC50 (nM)'; the text calls the values IC50. As for the experimental part:
Plates were washed two times with washing buffer (PBS, Tween 20 0.1%) with a plate washer and saturated with Casein 5% (Sigma) in PBS for 90 minutes at room temperature (25±1° C.). […] Plates were washed 3 times as described previously. […] Plates were washed 3 times as described previously and Streptavidin-HRP was added, and the plates were incubated for 30 minutes at room temperature (25±1° C.). Plates were washed a last time and the substrate (TMB; Pierce Thermo-Scientific) was added to the plate. After 10 minutes, the reaction was stopped using an acidic solution and the plates were read at absorbance 450-630 nm. The IC₅₀ was then calculated using the interpolated non-linear four-parameters standard curve.

Assay [4] has the same target. The experiment in a line: human PD-L1-Fc binding ELISA: huPD-L1-Fc coated, anti-cystatin A detection, no HSA in the assay buffer. As for the experimental part:
(§1) Plates were washed and AFFIMER® polypeptides were detected using streptavidin-HRP for 30 min. After the last washing step, the TMB substrate was added for the development of the experiment and plates were read at 450 nm. The EC₅₀ was then calculated using the interpolated non-linear four-parameters standard curve.
(In general: An ELISA detects its analyte on a solid surface through an enzyme-linked reagent.)

For assay [5] the target is unchanged. The experiment in a line: SPR (Biacore 8K): human PD-L1-Fc amine-coupled on a CM5 chip, AFFIMER as analyte, 1:1 Langmuir fit.
The target is the same in assay [6]. The experiment in a line: human PD-L1-Fc/HSA bridging ELISA: huPD-L1-Fc coated, AFFIMER titrated with 10 µM HSA, detection with HRP-conjugated anti-HSA antibody (the signal needs PD-L1 and HSA bound at once). As for the experimental part:
After saturation with 5% casein/PBS buffer, the plates were washed and a dilution of AFFIMER® polypeptides or controls was incubated with HSA at a final concentration of 10 μM for 90 minutes. Plates were then washed, and a […] polyclonal antibody, anti-HSA (HRP-conjugated) (Abcam), was added for 90 minutes. After a last washing step, TMB was added for the development of the experiment and the plates were read at 450 nm. The EC₅₀ was then calculated using the interpolated non-linear four-parameters standard curve (FIG. 10).

Assay [7] addresses T3, human serum albumin (HSA) (human, UniProt P02768 25-609).
T3 construct: The assays used bought HSA (Sigma #A37812 in the SPR work); also called HuSA
The experiment in a line: SPR (Biacore 8K): HSA amine-coupled on a CM5 chip, AFFIMER as analyte, pH 6.0, 1:1 Langmuir fit. As for the experimental part:
(§2) For the HSA binding kinetic analysis, HSA (Sigma #A37812) was immobilized on a CM5 chip surface using amine coupling in 10 mM sodium acetate (pH 5.0) (Cytvia). […] The chip surface was regenerated with 3 mM NaOH for 20 seconds at a flow rate of 20 μl/min. The kinetic data was blank subtracted and fit to a 1:1 Langmuir binding model (BIAcore evaluation software; Cytiva).

For assay [8], the target named is T3, human serum albumin (HSA). Nature of the assay: SPR (Biacore 8K): HSA amine-coupled on a CM5 chip, AFFIMER as analyte, pH 7.4, 1:1 Langmuir fit. As for the experimental part: as §2
The target of assay [9] is T3, human serum albumin (HSA). The experiment in a line: HSA binding ELISA: HSA coated, bound AFFIMER detected with biotinylated anti-cystatin A antibody and streptavidin-HRP. The procedure: as §1
In assay [10] the target is T3, human serum albumin (HSA). The experiment in a line: HSA binding ELISA: HSA coated, anti-cystatin A detection.
Assay [11] addresses T1, human PD-L1-Fc (R&D Systems). The experiment in a line: human PD-L1-Fc binding ELISA: huPD-L1-Fc coated, anti-cystatin A detection.
The target in assay [12] is PD-L1 on cells (NCI-H441 cells; aAPC PD-L1/CHO-K1 cells, Promega) (human, UniProt Q9NZQ7 19-290). Nature of the assay: cell-based or functional assay.
PD-L1 on cells (NCI-H441 cells; aAPC PD-L1/CHO-K1 cells, Promega), sequence (Q9NZQ7 19-290): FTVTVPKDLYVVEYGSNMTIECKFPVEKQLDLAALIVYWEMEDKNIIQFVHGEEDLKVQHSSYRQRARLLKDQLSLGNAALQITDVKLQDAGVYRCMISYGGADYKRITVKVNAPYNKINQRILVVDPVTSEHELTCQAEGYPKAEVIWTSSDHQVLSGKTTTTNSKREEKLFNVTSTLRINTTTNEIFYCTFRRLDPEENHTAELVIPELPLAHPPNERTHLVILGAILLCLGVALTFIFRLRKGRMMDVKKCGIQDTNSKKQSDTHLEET
Assay [13] concerns the target T1, human PD-L1-Fc (R&D Systems). Nature of the assay: SPR (Biacore 8K): human PD-L1-Fc amine-coupled on a CM5 chip, AFFIMER as analyte.

T1 sequence (Q9NZQ7 19-239 limits assumed): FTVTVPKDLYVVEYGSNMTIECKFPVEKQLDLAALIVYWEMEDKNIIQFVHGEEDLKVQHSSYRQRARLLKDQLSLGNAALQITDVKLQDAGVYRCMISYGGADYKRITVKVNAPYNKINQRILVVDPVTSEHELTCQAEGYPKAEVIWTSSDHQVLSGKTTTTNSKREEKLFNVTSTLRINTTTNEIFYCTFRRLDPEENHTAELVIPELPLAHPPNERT
T3 sequence (P02768 25-609): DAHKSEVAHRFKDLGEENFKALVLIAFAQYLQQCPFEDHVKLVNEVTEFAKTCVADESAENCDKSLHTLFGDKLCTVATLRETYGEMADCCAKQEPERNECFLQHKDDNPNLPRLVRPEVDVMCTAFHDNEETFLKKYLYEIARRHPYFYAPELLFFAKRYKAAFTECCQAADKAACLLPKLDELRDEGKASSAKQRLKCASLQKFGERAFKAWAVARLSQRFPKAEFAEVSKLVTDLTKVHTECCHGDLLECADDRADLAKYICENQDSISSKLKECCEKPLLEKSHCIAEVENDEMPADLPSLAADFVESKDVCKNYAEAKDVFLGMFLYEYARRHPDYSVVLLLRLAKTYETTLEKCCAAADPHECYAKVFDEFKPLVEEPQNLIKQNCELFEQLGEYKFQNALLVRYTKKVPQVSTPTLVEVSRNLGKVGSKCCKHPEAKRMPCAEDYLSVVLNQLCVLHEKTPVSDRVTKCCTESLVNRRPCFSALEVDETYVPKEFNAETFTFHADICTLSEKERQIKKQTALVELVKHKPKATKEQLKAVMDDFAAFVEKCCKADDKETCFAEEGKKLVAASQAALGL

B1: Clone 80 XT35 (anti-PD-L1 type III AFFIMER® XT in-line fusion dimer XT) (designed binder)
chain: MIPGGLSEAKPATPEIQEIVDKVKPQLEEKTGETYGKLEAVQYKTQVVRRKHFPQWPGTNYYIKVRAGDNKYMHLKVFKSLDLQPREVFQEDLVLTGYQVDKNKDDELTGFAEAAAKEAAAKEAAAKEAAAKEAAAKEAAAKMIPGGLSEAKPATPEIQEIVDKVKPQLEEKTGETYGKLEAVQYKTQVVRRKHFPQWPGTNYYIKVRAGDNKYMHLKVFKSLDLQPREVFQEDLVLTGYQVDKNKDDELTGFAEAAAKEAAAKEAAAKEAAAKEAAAKEAAAKMIPRGLSEAKPATPEIQEIVDKVKPQLEEKTNETYGKLEAVQYKTQVLANFFQRRWPGSTNYYIKVRAGDNKYMHLKVFNGPWKFRNTDRGADRVLTGYQVDKNKDDELTGFHHHHHH
notes: Made in E. coli; Two Clone 80 units are fused to one HSA-41; also called XT35_1; ILF trimer format
Broadly, the Kd is the equilibrium constant for the complex coming apart. A high value points to weaker binding. As usually defined, the koff is the rate constant with which the complex falls apart. In general, kon refers to the rate constant with which the complex forms. Read a low kon as slower complex formation. In general, IC50 refers to the midpoint of a concentration-inhibition curve. As a reminder, the EC50 is the concentration giving half of the maximal effect. Low readings indicate greater potency, high ones weaker potency. For the molecule B1, the Kd in [1] is 0.0686 nM; in assay [5], 0.0391 nM; in [7], 4.44 nM; in assay [8], 6.13 nM; in assay [13], 0.06 nM. Moreover, the koff in assay [1] amounted to 6.07e-05 s⁻¹; in [2], 0.0474 s⁻¹; in assay [7], 0.00302 s⁻¹; in [8], 0.00589 s⁻¹; in assay [13], 7.12e-05 s⁻¹. The kon in assay [1] came to 884000 M⁻¹ s⁻¹; in assay [2], 176000 M⁻¹ s⁻¹; in [7], 681000 M⁻¹ s⁻¹; in assay [8], 961000 M⁻¹ s⁻¹; in assay [13], 1.19e+06 M⁻¹ s⁻¹. The molecule also gave a concentration for half-maximal inhibition (IC50) in assay [3] of 0.84 nM. The EC50 in assay [4] was found to be 0.036 nM; in [6] it was 0.57 nM; in assay [9], 0.03 nM; in assay [10], 1.03 nM; in assay [11] it was 0.01 nM. Besides, the “half-maximal concentration of PD-1/PD-L1 blockade (% of inhibition, NFAT-luciferase reporter cells; IC50)” value in [12] was 33.4 nM.
